Assay results from patent publication US20200262877A1, “ION CHANNEL-BINDING PEPTIDES AND METHODS OF USE THEREOF” (priority 2017, published 2020).

How the values were obtained:
5HT3a = target: T1, 5HT3a (Homo sapiens, UniProt P46098); test: Ion channel panel (IonWorks Barracuda): 5HT3a; format: cell-based
T1 construct: host or cells: HEK293 or CHO
T1 sequence (P46098 whole entry, looked up): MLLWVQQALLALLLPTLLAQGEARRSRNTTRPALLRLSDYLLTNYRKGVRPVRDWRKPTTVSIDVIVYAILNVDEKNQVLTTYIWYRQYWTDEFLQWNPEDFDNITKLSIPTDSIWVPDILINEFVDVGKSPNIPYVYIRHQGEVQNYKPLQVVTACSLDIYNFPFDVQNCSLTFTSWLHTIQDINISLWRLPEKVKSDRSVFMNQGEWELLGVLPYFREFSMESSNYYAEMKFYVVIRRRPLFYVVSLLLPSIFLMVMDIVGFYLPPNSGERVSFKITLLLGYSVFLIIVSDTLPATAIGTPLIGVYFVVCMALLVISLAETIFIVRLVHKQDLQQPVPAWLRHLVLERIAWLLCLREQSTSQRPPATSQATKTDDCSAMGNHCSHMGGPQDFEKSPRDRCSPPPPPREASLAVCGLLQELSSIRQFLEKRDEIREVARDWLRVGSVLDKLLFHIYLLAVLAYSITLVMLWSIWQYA
How it was run: (§1)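 Peptides were tested in duplicate at final 20 μM and 200 nM, with concentration set by amino acid analysis, in HEPES-buffered saline. They were applied for at least 5 min to HEK293 or CHO cells transfected with each channel. Currents were expressed as % inhibition, 1-(Ipeptide/Icontrol)×100, or % activation, Ipeptide/Icontrol×100, against a channel-matched reference compound.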

α3β4 = target: T2, α3β4 (Homo sapiens, UniProt P30926+P32297); test: Ion channel panel (IonWorks Barracuda): α3β4; format: cell-based; settings: 100% = no change, <100% = inhibition
T2 construct: host or cells: HEK293 or CHO
How it was run: as §1

α4β2 = target: T3, α4β2 (Homo sapiens, UniProt P17787+P43681); test: Ion channel panel (IonWorks Barracuda): α4β2; format: cell-based; settings: 100% = no change, <100% = inhibition
T3 construct: host or cells: HEK293 or CHO
How it was run: as §1

Cav2.1 = target: T4, Cav2.1 (Homo sapiens, UniProt O00555); test: cell-based; settings: 100% = no change, <100% = inhibition
T4 construct: host or cells: HEK293 or CHO
How it was run: as §1

Cav2.2 = target: T5, Cav2.2 (Homo sapiens, UniProt Q00975); test: cell-based; settings: 100% = no change, <100% = inhibition
T5 construct: host or cells: HEK293 or CHO
How it was run: as §1

Kv2.1 = target: T6, Kv2.1 (Homo sapiens, UniProt Q14721); test: cell-based; settings: 100% = no change, <100% = inhibition
T6 construct: host or cells: HEK293 or CHO
How it was run: as §1

GABA = test: Ion channel panel (IonWorks Barracuda): GABA; format: cell-based; settings: 100% = no change, <100% = inhibition
How it was run: as §1

Nav1.5 = Nav1.5 (Homo sapiens, UniProt Q14524); test: in vitro; settings: 100% = no change; for Activity of Nav1.5 with peptide, expressed as a percentage of the reference compound: peptide at 0.2 μM; for Activity of Nav1.5 with peptide (percentage of the reference compound): peptide at 20 μM
How it was run: as §1

hERG = hERG (Homo sapiens, UniProt Q12809); test: in vitro; settings: 100% = no change, <100% = inhibition
How it was run: as §1

Kir2.1 = target: T7, Kir2.1 (Homo sapiens, UniProt P63252); test: Ion channel panel (IonWorks Barracuda): Kir2.1; format: cell-based; settings: 100% = no change, <100% = inhibition
T7 construct: host or cells: HEK293 or CHO
How it was run: as §1

Kv1.1 = target: T8, Kv1.1 (Homo sapiens, UniProt Q09470); test: cell-based; format: cell-based; settings: 100% = no change, <100% = inhibition
T8 construct: host or cells: HEK293 or CHO
How it was run: as §1

Kv1.2 = target: T9, Kv1.2 (Homo sapiens, UniProt P16389); test: cell-based; format: cell-based; settings: 100% = no change, <100% = inhibition
T9 construct: host or cells: HEK293 or CHO
How it was run: as §1

Kv1.3 = target: T10, Kv1.3 (Homo sapiens, UniProt P22001); test: cell-based; format: cell-based; settings: 100% = no change, <100% = inhibition
T10 construct: host or cells: HEK293 or CHO
How it was run: as §1

Nav1.7 = target: T11, Nav1.7 (Homo sapiens, UniProt Q15858); test: cell-based; format: cell-based; settings: 100% = no change; for Activity of Nav1.7 with peptide, expressed as a percentage of the reference compound: peptide at 0.2 μM; for Activity of Nav1.7 with peptide (percentage of the reference compound): peptide at 20 μM
T11 construct: host or cells: HEK293 or CHO

NR2A = target: T12, NR2A (Homo sapiens, UniProt Q12879); test: Ion channel panel (IonWorks Barracuda): NR2A; format: cell-based; settings: 100% = no change, <100% = inhibition
T12 construct: host or cells: HEK293 or CHO
How it was run: as §1

NR2B = target: T13, NR2B (Homo sapiens, UniProt Q13224); test: Ion channel panel (IonWorks Barracuda): NR2B; format: cell-based; settings: 100% = no change, <100% = inhibition
T13 construct: host or cells: HEK293 or CHO
How it was run: as §1

TRPA1 = target: T14, TRPA1 (Homo sapiens, UniProt O75762); test: Ion channel panel (IonWorks Barracuda): TRPA1; format: cell-based; settings: 100% = no change, <100% = inhibition
T14 construct: host or cells: HEK293 or CHO
How it was run: as §1

TRPV1 = target: T15, TRPV1 (Homo sapiens, UniProt Q8NER1); test: Ion channel panel (IonWorks Barracuda): TRPV1; format: cell-based; settings: 100% = no change, <100% = inhibition
T15 construct: host or cells: HEK293 or CHO
How it was run: as §1

[1] = first of two Nav1.5 columns (probably TP1)
[2] = second of two Nav1.5 columns (probably TP2)
[3] = first of two Nav1.7 columns (probably TP1)
[4] = second of two Nav1.7 columns (probably TP2)

T11 sequence (Q15858 whole entry): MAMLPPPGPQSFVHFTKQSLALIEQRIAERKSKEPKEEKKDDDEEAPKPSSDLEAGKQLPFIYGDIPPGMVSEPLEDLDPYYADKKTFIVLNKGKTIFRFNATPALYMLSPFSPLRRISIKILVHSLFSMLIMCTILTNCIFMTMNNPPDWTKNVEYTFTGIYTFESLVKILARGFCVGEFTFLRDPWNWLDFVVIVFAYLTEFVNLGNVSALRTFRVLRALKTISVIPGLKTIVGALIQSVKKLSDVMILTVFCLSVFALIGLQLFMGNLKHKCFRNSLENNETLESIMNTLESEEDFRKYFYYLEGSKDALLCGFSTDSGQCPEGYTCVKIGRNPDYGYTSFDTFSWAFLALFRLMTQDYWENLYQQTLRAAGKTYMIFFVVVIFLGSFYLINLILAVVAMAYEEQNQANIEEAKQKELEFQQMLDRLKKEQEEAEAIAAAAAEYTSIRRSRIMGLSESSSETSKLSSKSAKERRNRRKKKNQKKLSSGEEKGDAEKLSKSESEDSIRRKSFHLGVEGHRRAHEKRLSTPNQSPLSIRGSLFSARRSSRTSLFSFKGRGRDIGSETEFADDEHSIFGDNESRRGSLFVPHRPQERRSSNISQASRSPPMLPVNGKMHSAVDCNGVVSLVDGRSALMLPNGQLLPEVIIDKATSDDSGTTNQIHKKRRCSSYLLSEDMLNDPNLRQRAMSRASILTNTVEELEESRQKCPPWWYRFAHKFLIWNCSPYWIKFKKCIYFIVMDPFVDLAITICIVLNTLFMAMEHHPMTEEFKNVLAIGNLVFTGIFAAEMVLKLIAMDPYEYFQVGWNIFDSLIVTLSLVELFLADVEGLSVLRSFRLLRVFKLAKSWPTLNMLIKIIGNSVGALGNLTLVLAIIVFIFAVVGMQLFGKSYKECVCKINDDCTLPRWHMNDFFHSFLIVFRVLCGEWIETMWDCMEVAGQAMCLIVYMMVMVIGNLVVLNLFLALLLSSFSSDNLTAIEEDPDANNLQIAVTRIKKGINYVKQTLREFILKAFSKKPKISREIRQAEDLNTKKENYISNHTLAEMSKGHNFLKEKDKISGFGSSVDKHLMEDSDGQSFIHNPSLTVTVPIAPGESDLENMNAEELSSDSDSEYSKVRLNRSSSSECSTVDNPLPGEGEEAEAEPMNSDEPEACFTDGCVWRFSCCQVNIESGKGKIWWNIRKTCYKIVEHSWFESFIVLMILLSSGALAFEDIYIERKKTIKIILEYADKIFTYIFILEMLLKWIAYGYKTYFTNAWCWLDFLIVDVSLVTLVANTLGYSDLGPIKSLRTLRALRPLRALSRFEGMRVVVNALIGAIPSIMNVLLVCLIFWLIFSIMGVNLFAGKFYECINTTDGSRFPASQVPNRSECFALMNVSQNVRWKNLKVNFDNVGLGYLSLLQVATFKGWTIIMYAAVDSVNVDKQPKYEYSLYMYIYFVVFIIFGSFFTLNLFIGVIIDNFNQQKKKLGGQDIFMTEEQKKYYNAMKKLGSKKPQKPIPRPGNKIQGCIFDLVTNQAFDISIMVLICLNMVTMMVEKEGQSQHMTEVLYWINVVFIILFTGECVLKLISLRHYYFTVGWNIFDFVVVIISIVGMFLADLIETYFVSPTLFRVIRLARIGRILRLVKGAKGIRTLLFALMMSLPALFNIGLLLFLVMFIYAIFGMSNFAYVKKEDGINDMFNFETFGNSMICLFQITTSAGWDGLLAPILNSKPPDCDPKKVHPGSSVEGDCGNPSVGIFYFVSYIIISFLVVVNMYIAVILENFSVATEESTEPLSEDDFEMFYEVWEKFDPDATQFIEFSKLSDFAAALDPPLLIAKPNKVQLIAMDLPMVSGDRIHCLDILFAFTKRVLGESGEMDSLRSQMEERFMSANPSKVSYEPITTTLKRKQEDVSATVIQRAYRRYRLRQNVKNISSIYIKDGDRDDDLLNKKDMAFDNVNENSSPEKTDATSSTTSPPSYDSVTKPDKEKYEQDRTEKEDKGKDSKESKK
Sequence of Nav1.5 (Q14524 whole entry): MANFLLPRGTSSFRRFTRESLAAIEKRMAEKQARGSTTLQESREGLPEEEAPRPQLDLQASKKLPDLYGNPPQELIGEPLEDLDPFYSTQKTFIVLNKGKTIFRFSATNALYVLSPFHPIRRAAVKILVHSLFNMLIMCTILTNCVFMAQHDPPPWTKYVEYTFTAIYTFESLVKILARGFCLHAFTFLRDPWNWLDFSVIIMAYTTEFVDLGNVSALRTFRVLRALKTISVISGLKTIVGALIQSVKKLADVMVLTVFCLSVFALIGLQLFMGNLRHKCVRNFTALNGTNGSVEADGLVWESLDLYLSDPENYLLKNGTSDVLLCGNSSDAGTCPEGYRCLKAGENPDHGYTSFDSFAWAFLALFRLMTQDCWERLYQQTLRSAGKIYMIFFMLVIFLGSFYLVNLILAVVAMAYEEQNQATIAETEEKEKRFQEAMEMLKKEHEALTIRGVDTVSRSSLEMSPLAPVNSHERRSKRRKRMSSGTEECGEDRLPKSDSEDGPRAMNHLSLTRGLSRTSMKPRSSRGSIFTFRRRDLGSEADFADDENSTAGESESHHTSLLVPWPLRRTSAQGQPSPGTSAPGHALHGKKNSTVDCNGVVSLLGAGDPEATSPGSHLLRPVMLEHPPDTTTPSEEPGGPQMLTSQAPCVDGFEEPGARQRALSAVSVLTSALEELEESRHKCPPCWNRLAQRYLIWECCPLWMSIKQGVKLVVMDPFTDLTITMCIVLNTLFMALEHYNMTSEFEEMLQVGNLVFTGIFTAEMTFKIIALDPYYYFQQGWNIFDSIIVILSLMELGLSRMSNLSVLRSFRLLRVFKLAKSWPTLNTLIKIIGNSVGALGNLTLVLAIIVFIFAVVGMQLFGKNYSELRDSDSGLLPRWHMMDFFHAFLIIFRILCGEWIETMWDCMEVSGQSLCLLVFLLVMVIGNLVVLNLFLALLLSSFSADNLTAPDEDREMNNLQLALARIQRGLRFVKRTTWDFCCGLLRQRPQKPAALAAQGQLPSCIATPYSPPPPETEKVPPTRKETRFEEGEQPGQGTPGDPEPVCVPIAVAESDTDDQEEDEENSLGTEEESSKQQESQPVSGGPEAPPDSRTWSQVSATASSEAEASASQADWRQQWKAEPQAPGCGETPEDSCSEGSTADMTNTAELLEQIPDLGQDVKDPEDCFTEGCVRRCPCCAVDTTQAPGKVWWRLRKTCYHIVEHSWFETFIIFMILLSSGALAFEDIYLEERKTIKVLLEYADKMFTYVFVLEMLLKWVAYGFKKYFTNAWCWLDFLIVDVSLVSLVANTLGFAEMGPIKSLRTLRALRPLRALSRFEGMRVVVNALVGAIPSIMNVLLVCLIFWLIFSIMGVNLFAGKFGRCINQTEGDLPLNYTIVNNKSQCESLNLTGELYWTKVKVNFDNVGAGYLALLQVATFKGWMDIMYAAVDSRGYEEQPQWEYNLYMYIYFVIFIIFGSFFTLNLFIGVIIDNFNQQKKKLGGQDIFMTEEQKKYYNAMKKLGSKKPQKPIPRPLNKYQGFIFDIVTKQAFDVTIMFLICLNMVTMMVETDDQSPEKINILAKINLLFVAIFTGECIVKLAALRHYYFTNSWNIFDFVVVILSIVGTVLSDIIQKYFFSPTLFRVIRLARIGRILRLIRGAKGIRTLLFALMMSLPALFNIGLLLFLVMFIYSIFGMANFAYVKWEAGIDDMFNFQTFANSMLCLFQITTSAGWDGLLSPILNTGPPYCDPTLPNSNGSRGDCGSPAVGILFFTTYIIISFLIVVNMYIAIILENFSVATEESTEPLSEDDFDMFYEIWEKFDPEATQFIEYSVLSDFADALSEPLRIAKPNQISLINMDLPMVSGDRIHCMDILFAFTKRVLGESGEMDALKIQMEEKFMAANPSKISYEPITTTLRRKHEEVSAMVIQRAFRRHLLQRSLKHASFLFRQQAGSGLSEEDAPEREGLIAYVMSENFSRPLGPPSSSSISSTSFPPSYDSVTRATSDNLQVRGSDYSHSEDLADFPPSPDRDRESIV
T8 sequence (Q09470 whole entry): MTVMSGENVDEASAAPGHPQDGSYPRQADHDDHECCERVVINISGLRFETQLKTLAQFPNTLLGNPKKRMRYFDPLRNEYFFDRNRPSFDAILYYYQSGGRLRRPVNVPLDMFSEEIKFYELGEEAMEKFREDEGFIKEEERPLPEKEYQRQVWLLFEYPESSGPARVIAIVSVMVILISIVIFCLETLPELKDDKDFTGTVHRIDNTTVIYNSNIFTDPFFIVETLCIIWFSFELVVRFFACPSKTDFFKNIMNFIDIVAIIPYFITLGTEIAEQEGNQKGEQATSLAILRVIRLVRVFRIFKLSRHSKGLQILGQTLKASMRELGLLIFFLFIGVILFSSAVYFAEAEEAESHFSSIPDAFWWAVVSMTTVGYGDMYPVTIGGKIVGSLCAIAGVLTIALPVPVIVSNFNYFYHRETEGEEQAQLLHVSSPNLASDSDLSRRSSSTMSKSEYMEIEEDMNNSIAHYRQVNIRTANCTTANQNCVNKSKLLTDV
T9 sequence (P16389 whole entry): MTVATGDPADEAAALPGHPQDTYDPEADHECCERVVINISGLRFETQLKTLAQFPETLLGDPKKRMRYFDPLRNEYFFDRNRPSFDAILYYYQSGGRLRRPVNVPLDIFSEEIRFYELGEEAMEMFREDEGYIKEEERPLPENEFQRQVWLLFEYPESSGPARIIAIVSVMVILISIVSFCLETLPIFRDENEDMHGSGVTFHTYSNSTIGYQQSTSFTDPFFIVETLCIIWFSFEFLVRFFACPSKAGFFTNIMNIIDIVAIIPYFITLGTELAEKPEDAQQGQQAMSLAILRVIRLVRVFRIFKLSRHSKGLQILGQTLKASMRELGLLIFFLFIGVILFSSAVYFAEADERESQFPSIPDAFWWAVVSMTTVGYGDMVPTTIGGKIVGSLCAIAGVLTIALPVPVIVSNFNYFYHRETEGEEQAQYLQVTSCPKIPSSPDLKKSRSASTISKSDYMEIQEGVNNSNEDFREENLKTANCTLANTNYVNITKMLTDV

Question: Which “Activity of 5HT3a with peptide (percentage of the reference compound)” value (5HT3a) does the source give for “17 (GSRPTDIKCSASYQCFPVCKSRFGKTNGRCVNGLCDCF) [compound 17]” here?
Answer: The value was 85%.

Question: And the “Activity of 5HT3a with peptide, expressed as a percentage of the reference compound” value (5HT3a)?
Answer: Its value is 81%.

Question: And the “Activity of a3b4 with peptide, expressed as a percentage of the reference compound” value (α3β4; peptide at 0.2 μM)?
Answer: Its value is 98%.

Question: And the “Activity of a3b4 with peptide (percentage of the reference compound)” value (α3β4; peptide at 20 μM)?
Answer: The value was 97%.

Question: And the “Activity of a4b2 with peptide, expressed as a percentage of the reference compound” value (α4β2; peptide at 0.2 μM)?
Answer: Its value is 93%.

Question: And the “Activity of a4b2 with peptide (percentage of the reference compound)” value (α4β2; peptide at 20 μM)?
Answer: The value was 78%.

Question: What about the “Activity of Cav2.1 with peptide, expressed as a percentage of the reference compound” value (Cav2.1; peptide at 0.2 μM) of the same substance?
Answer: Its value is 107%.

Question: And the “Activity of Cav2.1 with peptide (percentage of the reference compound)” value (Cav2.1; peptide at 20 μM)?
Answer: The value was 90%.

Question: And the “Activity of Cav2.2 with peptide, expressed as a percentage of the reference compound” value (Cav2.2; peptide at 0.2 μM)?
Answer: Its value is 117%.

Question: And the “Activity of Cav2.2 with peptide (percentage of the reference compound)” value (Cav2.2; peptide at 20 μM)?
Answer: Its value is 100%.

Question: What about the “Activity of Kv2.1 with peptide, expressed as a percentage of the reference compound” value (Kv2.1; peptide at 0.2 μM) of the same substance?
Answer: Its value is 88%.

Question: And the “Activity of Kv2.1 with peptide (percentage of the reference compound)” value (Kv2.1; peptide at 20 μM)?
Answer: The value was 93%.

Question: What about the “Activity of GABA with peptide, expressed as a percentage of the reference compound” value (GABA; peptide at 0.2 μM) of the same substance?
Answer: Its value is 97%.

Question: And the “Activity of GABA with peptide (percentage of the reference compound)” value (GABA; peptide at 20 μM)?
Answer: The value was 108%.

Question: What about the “Activity of Nav1.5 with peptide, expressed as a percentage of the reference compound” value (Nav1.5; [1]) of the same substance?
Answer: The value was 96%.

Question: What about the “Activity of Nav1.5 with peptide, expressed as a percentage of the reference compound” value (Nav1.5; [2]) of the same substance?
Answer: Its value is 95%.

Question: And the “Activity of Nav1.5 with peptide (percentage of the reference compound)” value (Nav1.5; [1])?
Answer: The value was 95%.

Question: And the “Activity of Nav1.5 with peptide (percentage of the reference compound)” value (Nav1.5; [2])?
Answer: Its value is 94%.

Question: What about the “Activity of hERG with peptide, expressed as a percentage of the reference compound” value (hERG; peptide at 0.2 μM) of the same substance?
Answer: Its value is 85%.

Question: And the “Activity of hERG with peptide (percentage of the reference compound)” value (hERG; peptide at 20 μM)?
Answer: Its value is 8%.

Question: And the “Activity of Kir2.1 with peptide, expressed as a percentage of the reference compound” value (Kir2.1; peptide at 0.2 μM)?
Answer: The value was 103%.

Question: And the “Activity of Kir2.1 with peptide (percentage of the reference compound)” value (Kir2.1; peptide at 20 μM)?
Answer: Its value is 84%.

Question: What about the “Activity of Kv1.1 with peptide, expressed as a percentage of the reference compound” value (Kv1.1; peptide at 0.2 μM) of the same substance?
Answer: The value was 106%.

Question: And the “Activity of Kv1.1 with peptide (percentage of the reference compound)” value (Kv1.1; peptide at 20 μM)?
Answer: The value was 89%.

Question: What about the “Activity of Kv1.2 with peptide, expressed as a percentage of the reference compound” value (Kv1.2; peptide at 0.2 μM) of the same substance?
Answer: Its value is 97%.

Question: What about the “Activity of Kv1.2 with peptide (percentage of the reference compound)” value (Kv1.2; peptide at 20 μM) of the same substance?
Answer: Its value is 47%.

Question: And the “Activity of Kv1.3 with peptide, expressed as a percentage of the reference compound” value (Kv1.3; peptide at 0.2 μM)?
Answer: The value was 96%.

Question: And the “Activity of Kv1.3 with peptide (percentage of the reference compound)” value (Kv1.3; peptide at 20 μM)?
Answer: Its value is 6%.

Question: What about the “Activity of Nav1.7 with peptide, expressed as a percentage of the reference compound” value (Nav1.7; [3]) of the same substance?
Answer: The value was 66%.

Question: And the “Activity of Nav1.7 with peptide, expressed as a percentage of the reference compound” value (Nav1.7; [4])?
Answer: Its value is 61%.

Question: What about the “Activity of Nav1.7 with peptide (percentage of the reference compound)” value (Nav1.7; [3]) of the same substance?
Answer: Its value is 75%.

Question: What about the “Activity of Nav1.7 with peptide (percentage of the reference compound)” value (Nav1.7; [4]) of the same substance?
Answer: Its value is 60%.

Question: What about the “Activity of NR2A with peptide, expressed as a percentage of the reference compound” value (NR2A; peptide at 0.2 μM) of the same substance?
Answer: Its value is 83%.

Question: And the “Activity of NR2A with peptide (percentage of the reference compound)” value (NR2A; peptide at 20 μM)?
Answer: Its value is 96%.

Question: What about the “Activity of NR2B with peptide, expressed as a percentage of the reference compound” value (NR2B; peptide at 0.2 μM) of the same substance?
Answer: Its value is 90%.

Question: What about the “Activity of NR2B with peptide (percentage of the reference compound)” value (NR2B; peptide at 20 μM) of the same substance?
Answer: Its value is 77%.

Question: What about the “Activity of TRPA1 with peptide, expressed as a percentage of the reference compound” value (TRPA1; peptide at 0.2 μM) of the same substance?
Answer: The value was 176%.

Question: And the “Activity of TRPA1 with peptide (percentage of the reference compound)” value (TRPA1; peptide at 20 μM)?
Answer: The value was 129%.

Question: What about the “Activity of TRPV1 with peptide, expressed as a percentage of the reference compound” value (TRPV1; peptide at 0.2 μM) of the same substance?
Answer: The value was 99%.

Question: What about the “Activity of TRPV1 with peptide (percentage of the reference compound)” value (TRPV1; peptide at 20 μM) of the same substance?
Answer: Its value is 82%.
